Data published in patent US20260007756A1, “COMPOUND AND USE THEREOF” (COHERENT BIOPHARMA (SUZHOU) LIMITED, priority 2022, published 2026).
Converted amounts (≈) assume the structure as drawn. Where two headings read alike, the source gives them in different places.

Assays:
cathepsin B-human liver = cathepsin B-human liver (Homo sapiens, UniProt P07858); settings: 37° C.
Description: • 1) The conjugate compounds were prepared into 500 μg/mL stock solutions with 0.1% TFA-acetonitrile water (1:1); • 2) 60 μL of 500 μg/mL compound stock solution was added to 536 μL of 50 mM NaOAc (containing 1 mM EDTA+10 mM Cys), before 4 μL of cathepsin B (CB enzyme) was added, and the mixture was well mixed by gentle shaking. • 3) The cleavage reaction system in step 2) was transferred to a thermostatic incubator at 37° C. for 0 h, 1 h, 2 h, 4 h, or 24 h of incubation. Samples were taken and loaded at various time points for LC-MS analysis.

C4-2 = settings: C4-2, 72 h, CellTiter-Glo
Description: Cells were prepared in advance, trypsinized, collected, counted, diluted to 1.5×10^4 cells/mL in a complete cell culture medium, and plated in 96-well plates. The diluted cell suspension was added at 100 μL/well, and negative and blank control wells were set on each plate. The 96-well plates with the added cells were incubated overnight at 37° C. in a 5% CO2 incubator.
Samples were serially diluted with medium (serially 3-fold diluted from 10 μM) to 9 concentrations. The medium in the plates was discarded, and the drug solutions were added at 100 μL per well to a 96-well plate in triplicate. Negative and blank controls were set. The plates were incubated at 37° C. for 72 h in a 5% CO2 incubator.
The CellTiter-Glo buffer was thawed and warmed to room temperature, and the CellTiter-Glo substrate was warmed to room temperature. The CellTiter-Glo buffer was added to the flask containing CellTiter-Glo substrate to dissolve the substrate, thereby preparing a CellTiter-Glo working solution, which was then vortexed slowly to complete dissolution. The cell culture plates were equilibrated at room temperature for 30 min, before the CellTiter-Glo working solution was added at 50 μL/well (about half the volume of cell culture medium in each well). The plate was covered by aluminum foil to keep out of light. The culture plate was shaken on an orbital shaker for 2 min to induce cell lysis. The culture plate was left to stand at room temperature for 10 min to stabilize the luminescence signals. The luminescence signal was detected on a microplate reader (Molecular Devices SpectraMax iD5).
Four-parameter curves were fitted using GraphPad Prism 8.0.2 to give IC50 values.

22RV1 = format: cell-based, human; settings: 22RV1, 72 h, CellTiter-Glo
From the text: (§1) Negative and blank controls were set.

MDA-MB-231 = format: cell-based, human; settings: MDA-MB-231, 72 h, CellTiter-Glo
From the text: as §1

Solubility study in PBS = format: physicochemical; settings: aqueous buffer, thermodynamic from solid; PBS (pH 7.2 to 7.4); read-out: Solubility, concentration
Description: The mixture was vortexed for 2 min until the solid was dissolved. The solubility was calculated as: C=m/V, C: concentration, m: sample weight, V: PBS total volume.

Plasma stability study 2 = format: in vitro ADME; settings: mouse plasma, 37° C.
Description: • 1) The conjugate compounds were prepared into 1 mg/mL stock solutions with 0.1% TFA-acetonitrile water (1:1); • 2) 10 μL of 1 mg/mL compound stock solution was added into 90 μL of fresh plasma, and the mixture was well mixed by gentle shaking, and transferred to a thermostatic incubator at 37° C. for 0 h, 0.5 h, 1 h, 2 h, 4 h, 6 h, or 24 h of incubation; • 3) at the time points, samples were taken out and 300 μL of methanol solution (containing 10 ng/ml of terfenadine) was added for protein precipitation; • 4) the mixture was centrifuged (13 min, 4° C., 12000 rpm) and the supernatant was collected, and preserved in a −80° C. refrigerator; after collection, the samples were loaded for LC-MS analysis.

## CC[C@@H]1C(=O)N(C)c2cnc(Nc3ccc(-c4cn([C@H]5CC[C@@H](N(CCOCCC#Cc6cccc7c6CN(C6CCC(=O)NC6=O)C7=O)C(=O)OCc6ccc(NC(=O)[C@H](CCCNC(N)=O)NC(=O)[C@@H](NC(=O)COCCOCCn7cc(C[C@H](NC(=O)[C@H](CCCCN)NC(=O)[C@H](CC(=O)O)NC(=O)[C@H](CC(=O)O)NC(=O)Cc8ccc(CNC(=O)NCCCC[C@H](NC(=O)N[C@@H](CCC(=O)O)C(=O)O)C(=O)O)cc8)C(=O)N[C@@H](CCCCNC(=O)CC[C@H](NC(=O)c8ccc(NCc9cnc%10[nH]c(N)nc(=O)c%10n9)cc8)C(=O)O)C(N)=O)nn7)C(C)C)cc6)CC5)nn4)cc3OC)nc2N1C1CCCC1 (stereo partly shown) [CR202V5]
Cathepsin B-human liver; 0 h
  CR20274 release rate of compounds after cleavage: 0%
  Principal component residue of compounds after cleavage: 100.00%
Cathepsin B-human liver; 1 h
  CR20274 release rate of compounds after cleavage: 100%
  Principal component residue of compounds after cleavage: 2.37%
Cathepsin B-human liver; 2 h
  CR20274 release rate of compounds after cleavage: 100%
  Principal component residue of compounds after cleavage: 0%
Cathepsin B-human liver; 4 h
  CR20274 release rate of compounds after cleavage: 100%
  Principal component residue of compounds after cleavage: 0%
Cathepsin B-human liver; 24 h
  CR20274 release rate of compounds after cleavage: 100%
  Principal component residue of compounds after cleavage: 0%
C4-2
  IC50: 144 nM
22RV1
  IC50: 779 nM
MDA-MB-231
  IC50: 412 nM
Solubility study in PBS
  solubility: 2800 µg/mL (≈ 941 µM)
Plasma stability study 2; 0 h
  CR20274 release rate (actual release/theoretical release): 0.02%
  Residual rate of principal component: 94.75%
Plasma stability study 2; 0.5 h
  CR20274 release rate (actual release/theoretical release): 0.17%
Plasma stability study 2; 0.5 h, read-out: Residual rate of principal component
  remaining at 0.5 h, 100 μg/mL: 101%
Plasma stability study 2; 1 h
  CR20274 release rate (actual release/theoretical release): 0.25%
Plasma stability study 2; 1 h, read-out: Residual rate of principal component
  remaining at 1 h, 100 μg/mL: 94.9%
Plasma stability study 2; 2 h
  CR20274 release rate (actual release/theoretical release): 0.37%
Plasma stability study 2; 2 h, read-out: Residual rate of principal component
  remaining at 2 h, 100 μg/mL: 94.7%
Plasma stability study 2; 4 h
  CR20274 release rate (actual release/theoretical release): 0.94%
Plasma stability study 2; 4 h, read-out: Residual rate of principal component
  remaining at 4 h, 100 μg/mL: 90.6%
Plasma stability study 2; 6 h
  CR20274 release rate (actual release/theoretical release): 0.97%
Plasma stability study 2; 6 h, read-out: Residual rate of principal component
  remaining at 6 h, 100 μg/mL: 80.4%
Plasma stability study 2; 24 h
  CR20274 release rate (actual release/theoretical release): 3.92%
  Residual rate of principal component: −1.03%
